Tests used:
[1] = target: full-length 20S proteasome core particle, β-subunit T1A inactive variant (M. tuberculosis H37Rv) (UniProt P9WHU1); experiment: negative stain EM
[2] = target: full-length 20S proteasome core particle, β-subunit T1A inactive variant (M. tuberculosis H37Rv) (UniProt P9WHU1); experiment: cryo-EM structure

Substance | percent of proteasomes doubly capped [1] | percent of proteasomes not associated with Bpa [1] | percent of core particles capped by Bpa on both ends [2] | percent of proteasomes singly capped [1] | percent of proteasomes uncapped [1]
bacterial proteasome activator Bpa, full-length, wild-type (from UniProt P9WKX3 1-174) (natural protein) | > 80% | < 1% | > 90% |  | 
covalent dimer of C-terminally truncated Bpa and full-length Bpa (BpaΔC-Bpa) (from UniProt P9WKX3) |  |  |  | 27% | 73%
